Measured values reported in publication PMC3077247 (EMBO Reports, 2011).

T1: GST-fusion of the HECT domain of Nedd4, wild type (UniProt P46934-4)
T1 sequence: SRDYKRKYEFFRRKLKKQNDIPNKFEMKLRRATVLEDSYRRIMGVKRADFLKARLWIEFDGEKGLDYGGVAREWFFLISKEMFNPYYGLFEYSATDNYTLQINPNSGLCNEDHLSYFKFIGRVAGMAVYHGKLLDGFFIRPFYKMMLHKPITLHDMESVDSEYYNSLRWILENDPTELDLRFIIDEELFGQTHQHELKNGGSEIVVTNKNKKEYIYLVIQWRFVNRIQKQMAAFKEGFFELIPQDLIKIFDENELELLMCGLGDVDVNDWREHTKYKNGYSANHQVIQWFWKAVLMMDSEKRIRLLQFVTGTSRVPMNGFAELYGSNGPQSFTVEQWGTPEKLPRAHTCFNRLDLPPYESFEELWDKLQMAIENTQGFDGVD

T2: HECT domain of Nedd4, F707A (as used for fluorescence polarisation and SPR) (UniProt P46934-4, F707A)
T2 sequence: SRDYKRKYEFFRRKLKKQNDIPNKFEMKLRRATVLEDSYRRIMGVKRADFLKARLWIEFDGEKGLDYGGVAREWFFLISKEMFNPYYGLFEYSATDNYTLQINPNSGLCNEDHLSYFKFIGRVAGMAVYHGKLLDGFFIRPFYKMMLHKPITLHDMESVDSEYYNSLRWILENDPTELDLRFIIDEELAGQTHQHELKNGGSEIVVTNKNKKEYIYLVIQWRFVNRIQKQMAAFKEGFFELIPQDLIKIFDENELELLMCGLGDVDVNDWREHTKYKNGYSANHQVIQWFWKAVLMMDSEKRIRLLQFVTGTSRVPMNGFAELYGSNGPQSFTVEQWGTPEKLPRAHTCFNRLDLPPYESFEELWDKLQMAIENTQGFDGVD

T3: HECT domain of Nedd4, Y605A (as used for SPR) (UniProt P46934-4, Y605A)
T3 sequence: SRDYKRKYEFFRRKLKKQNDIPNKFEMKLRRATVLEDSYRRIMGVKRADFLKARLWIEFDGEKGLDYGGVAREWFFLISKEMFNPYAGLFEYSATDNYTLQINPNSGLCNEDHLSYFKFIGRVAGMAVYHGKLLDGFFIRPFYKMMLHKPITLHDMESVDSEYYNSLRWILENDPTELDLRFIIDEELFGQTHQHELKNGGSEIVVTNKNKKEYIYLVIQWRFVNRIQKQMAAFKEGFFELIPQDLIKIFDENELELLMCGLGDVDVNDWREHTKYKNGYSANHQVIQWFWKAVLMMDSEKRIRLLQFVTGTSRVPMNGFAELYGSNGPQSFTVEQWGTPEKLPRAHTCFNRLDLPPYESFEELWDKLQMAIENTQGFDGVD


How the values were obtained:
[1] = target: T1, GST-fusion of the HECT domain of Nedd4, …; assay: pull-down
[2] = target: T2, HECT domain of Nedd4, F707A (as used …); assay: SPR
[3] = target: T3, HECT domain of Nedd4, Y605A (as used …); assay: SPR
ubiquitin (monomeric) = ubiquitin (monomeric) (UniProt P0CG48 1-76); assay: fluorescence polarisation

| Binder | binding result [1] | binding result [2] | binding result [3] | Kd (ubiquitin (monomeric)) |
| --- | --- | --- | --- | --- |
| E2 enzyme Ube2D3 (apo form) (enzyme) not shown | binds | binds | binds | – |
| HECT domain of Nedd4, wild type (as used for crystals, fluorescence polarisation, SPR and supplementary Fig S1) (domain or fragment) SRDYKRKYEFFRRKLKKQNDIPNKFEMKLRRATVLEDSYRRIMGVKRADFLKARLWIEFDGEKGLDYGGVAREWFFLISKEMFNPYYGLFEYSATDNYTLQINPNSGLCNEDHLSYFKFIGRVAGMAVYHGKLLDGFFIRPFYKMMLHKPITLHDMESVDSEYYNSLRWILENDPTELDLRFIIDEELFGQTHQHELKNGGSEIVVTNKNKKEYIYLVIQWRFVNRIQKQMAAFKEGFFELIPQDLIKIFDENELELLMCGLGDVDVNDWREHTKYKNGYSANHQVIQWFWKAVLMMDSEKRIRLLQFVTGTSRVPMNGFAELYGSNGPQSFTVEQWGTPEKLPRAHTCFNRLDLPPYESFEELWDKLQMAIENTQGFDGVD | – | – | – | 11 µM |
